Reference: patent US20170342148A1 (UNIVERSITE DE NANTES, published 2017)

What was measured:
[1] = biological target: T1, recombinant protein IL-34 (Peprotech Ref 200-34, whole protein without signal peptide with His tag on … (UniProt Q6ZMJ4 21-242)); experiment: SPR (BIAcore T100), antibody captured, IL-34 as analyte
T1 construct: mature; also called IL-34 protein; recombinant IL-34; not shown: C-terminal His tag
T1 sequence (looked up): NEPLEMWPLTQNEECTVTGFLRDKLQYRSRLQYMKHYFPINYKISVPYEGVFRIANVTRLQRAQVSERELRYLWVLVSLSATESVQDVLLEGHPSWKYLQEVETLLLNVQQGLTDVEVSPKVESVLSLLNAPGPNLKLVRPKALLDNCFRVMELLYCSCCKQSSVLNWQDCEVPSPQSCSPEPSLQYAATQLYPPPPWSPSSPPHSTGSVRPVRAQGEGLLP
Description: (§1) Theses interaction were performed at 25° C., in HBS-P+ buffer (HEPES 10 mM pH 7.4; NaCl 150 mM; P20 0.05%) by administrating different concentrations of IL-34 obtained by serial dilution of the protein IL-34 (Peprotech Ref 200-34, whole protein without signal peptide with His tag on C-terminal).
(§2) The regeneration is performed by administering 10 mM of Glycine-HCl buffer at pH=1.7 allowing dissociating the antibody IL-34 from immobilized polyclonal antibody.

[2] = biological target: T2, M-CSF receptor (R&D-Systems ref: 329-MR) (UniProt P07333 20-512); experiment: SPR (BIAcore T100), antibody injected over immobilised M-CSF-R
T2 construct: Bought soluble receptor, immobilised covalently on a CM5 chip; also called CSF-1 receptor; receptor M-CSF-R
Description: The measurement of surface plasmon resonance (SPR) was performed on BIACore T100. The microarrays CM5 (CM-dextran, 1-ethyl-3-(3-[…]) carbodiimide hydrochloride (EDC) and N-Hydroxysuccinimide (NHS) have been purchased by GE Healthcare BIAcore and used according to manufacture instructions.
The ligand, M-CSF receptor (R&D-Systems ref: 329-MR) was immobilized covalently on the CM5 microarray surface. Capture level of […] is comprised between 600 and 800 RU.
Theses interaction were performed at 25° C., in HBS-P+ buffer (HEPES 10 mM pH 7.4; NaCl 150 mM; P20 0.05%).

[3] = biological target: T1, recombinant protein IL-34 (Peprotech …); experiment: SPR (BIAcore T100), antibody captured on immobilised polyclonal anti-mouse antibody, IL-34 as analyte, 25 °C, 1:1 model
Description: as §1, §2
The obtained results are shown by sensograms of FIG. 2.

T2 sequence (P07333 20-512 limits assumed): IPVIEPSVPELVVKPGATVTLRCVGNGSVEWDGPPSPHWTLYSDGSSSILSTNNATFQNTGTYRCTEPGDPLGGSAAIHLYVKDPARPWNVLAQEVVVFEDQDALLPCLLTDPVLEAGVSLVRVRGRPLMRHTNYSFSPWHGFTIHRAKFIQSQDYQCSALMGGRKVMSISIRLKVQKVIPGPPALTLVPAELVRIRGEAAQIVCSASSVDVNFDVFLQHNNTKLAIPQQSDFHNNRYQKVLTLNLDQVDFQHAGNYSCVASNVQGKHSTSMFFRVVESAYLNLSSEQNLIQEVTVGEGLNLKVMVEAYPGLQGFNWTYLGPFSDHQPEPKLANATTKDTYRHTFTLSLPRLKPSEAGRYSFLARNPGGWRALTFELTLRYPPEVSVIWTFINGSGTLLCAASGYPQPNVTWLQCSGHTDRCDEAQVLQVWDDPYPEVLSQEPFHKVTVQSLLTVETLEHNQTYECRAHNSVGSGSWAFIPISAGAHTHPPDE

B1: murine anti-IL-34 antibody (clone BT34) (antibody, V domains shown)
VH: EVQLQQFGAELVKPGASVKISCKASGYTFTDYNMDWVKQSHGKSLEWIGDINPNYESTTYNQKFKGKATLTVDRSSSTAYMELRSLTSEDTAVYYCLRSGGDYWGQGTTLTVSS
VL: DVLMTQTPLSLPVGLGDQASISCRSSQTIVHSNGKTYLEWYLQKPGQSPKLLIYKVSNRFSGVPDRFSGSGSGTDFTLKISRVEAEDLGVYYCFQGSHVPLTFGAGTKLELK
notes: Murine monoclonal antibody from a hybridoma; No single sentence ties these numbers to BT34; also called anti-IL-34 antibody BT34; anti-IL-34 BT34 clone
- koff [1]: < 1e-06 s⁻¹
- binding result [2]: no binding (tested: 10 nM)
- Kd [3]: 9.4 pM
- koff [3]: 2.9e-07 s⁻¹
- kon [3]: 31000 M⁻¹ s⁻¹
